Reference: the Human Domainome abundance scans (Beltran et al. 2025)
± gives the uncertainty stated by the source.

B1: Ventral anterior homeobox 1, residues 102 to 157; numbered along this chain, Q5SQQ9 (parent)
chain: RTRTSFTAEQLYRLEMEFQRCQYVVGRERTELARQLNLSETQVKVWFQNRRTKQKK

Variants of: B1
Assay: abundance fitness (aPCA) (normalised: wild type 0, dead -1); higher = more abundant; growth selection in yeast, the domain comes from the species named
Conditions: Homo sapiens

Abundance fitness: each site, then its substitutions
L11: Q 0.231 ± 0.17 | R -0.61 ± 0.12 | T -0.149 ± 0.16 | W -0.494 ± 0.16 | Y -0.335 ± 0.16
Y12: A 0.044 ± 0.099 | C -0.176 ± 0.2 | F -0.13 ± 0.21 | I -0.188 ± 0.3 | L -0.086 ± 0.12 | M 0.102 ± 0.15 | P -0.967 ± 0.21 | S 0.069 ± 0.11 | T 0.018 ± 0.14 | V -0.085 ± 0.096 | W 0.001 ± 0.15
R13: A 0.089 ± 0.12 | C -0.161 ± 0.13 | E -0.513 ± 0.29 | F -0.29 ± 0.18 | G -0.207 ± 0.18 | H -0.066 ± 0.15 | I 0.092 ± 0.18 | K -0.004 ± 0.29 | L -0.068 ± 0.1 | M -0.022 ± 0.2 | N -0.283 ± 0.2 | P -0.849 ± 0.15 | Q 0.163 ± 0.18 | S -0.074 ± 0.097 | T -0.113 ± 0.13 | V -0.311 ± 0.15 | W -0.211 ± 0.18 | Y -0.316 ± 0.19
L14: A -0.708 ± 0.21 | C -0.518 ± 0.23 | F -0.789 ± 0.38 | I -0.54 ± 0.49 | M -0.368 ± 0.24 | S -0.906 ± 0.2 | T -0.843 ± 0.38 | V -0.619 ± 0.19 | W -0.747 ± 0.26
E15: A -0.876 ± 0.17 | C -0.803 ± 0.32 | D -0.379 ± 0.22 | F -0.533 ± 0.33 | G -0.823 ± 0.14 | H -1.08 ± 0.44 | L -0.44 ± 0.22 | M -0.982 ± 0.27 | N -0.564 ± 0.24 | P -1.07 ± 0.36 | Q -1.01 ± 0.27 | R -0.787 ± 0.13 | S -0.766 ± 0.2 | V -0.847 ± 0.17 | W -0.71 ± 0.25
M16: A -0.043 ± 0.14 | C -0.055 ± 0.21 | D 0.075 ± 0.23 | F -0.285 ± 0.31 | G -0.109 ± 0.11 | I -0.295 ± 0.25 | K -0.301 ± 0.21 | N -0.407 ± 0.26 | P -1.12 ± 0.37 | Q 0.008 ± 0.2 | R -0.233 ± 0.11 | S -0.027 ± 0.13 | T -0.076 ± 0.2 | V -0.09 ± 0.12 | W -0.291 ± 0.16 | Y -0.173 ± 0.22
E17: C -0.209 ± 0.22 | D -0.65 ± 0.29 | F -0.031 ± 0.36 | G -0.679 ± 0.14 | H -0.044 ± 0.23 | I -0.544 ± 0.37 | K -0.604 ± 0.3 | L -0.558 ± 0.2 | M -0.281 ± 0.23 | Q -0.296 ± 0.27 | R -0.421 ± 0.13 | S -0.294 ± 0.16 | T -0.297 ± 0.23 | V -0.296 ± 0.15 | W -0.359 ± 0.2
F18: C -0.741 ± 0.27 | I -0.689 ± 0.34 | L -0.927 ± 0.17 | M -0.674 ± 0.21 | V -0.887 ± 0.18 | W -0.181 ± 0.14 | Y -0.124 ± 0.23
Q19: A -0.002 ± 0.12 | C -0.225 ± 0.16 | D -0.161 ± 0.19 | E -0.039 ± 0.14 | F -0.33 ± 0.24 | G -0.133 ± 0.11 | H -0.274 ± 0.24 | I -0.165 ± 0.21 | L -0.044 ± 0.12 | M -0.133 ± 0.17 | N -0.115 ± 0.22 | P -0.732 ± 0.24 | R -0.316 ± 0.11 | S -0.063 ± 0.13 | T -0.046 ± 0.14 | V -0.153 ± 0.11 | W -0.213 ± 0.15 | Y -0.603 ± 0.3
R20: C -0.303 ± 0.18 | D 0.149 ± 0.31 | E -0.261 ± 0.25 | F -0.47 ± 0.26 | G -0.409 ± 0.12 | I -0.386 ± 0.28 | K -0.428 ± 0.24 | L -0.223 ± 0.14 | M -0.001 ± 0.17 | N 0.251 ± 0.29 | Q -0.226 ± 0.2 | S -0.04 ± 0.14 | T -0.305 ± 0.24 | V -0.162 ± 0.12 | W -0.632 ± 0.28 | Y -0.436 ± 0.29
C21: A -0.166 ± 0.31 | D 0.16 ± 0.47 | E -0.101 ± 0.2 | F -0.21 ± 0.41 | G -0.16 ± 0.2 | H -0.215 ± 0.35 | K -0.169 ± 0.31 | L -0.377 ± 0.17 | M -0.434 ± 0.27 | P -0.231 ± 0.41 | Q -0.37 ± 0.27 | R -0.229 ± 0.17 | S -0.013 ± 0.17 | T -0.019 ± 0.35 | V -0.054 ± 0.17 | W -0.635 ± 0.33 | Y -0.404 ± 0.28
Q22: A -0.033 ± 0.12 | D -0.081 ± 0.16 | E 0.024 ± 0.16 | F -0.585 ± 0.38 | G 0.033 ± 0.1 | H -0.251 ± 0.24 | I -0.38 ± 0.25 | K -0.103 ± 0.21 | L -0.437 ± 0.13 | M -0.249 ± 0.21 | N -0.285 ± 0.27 | P -0.133 ± 0.18 | R -0.32 ± 0.12 | S -0.087 ± 0.12 | T -0.17 ± 0.16 | V -0.324 ± 0.12 | W -0.383 ± 0.17 | Y -0.641 ± 0.35
Y23: A 0.082 ± 0.19 | C -0.145 ± 0.26
